From patent US8703913B2, “Sensor” (Medical Research Council, priority 2008, dated 2014)
Numbering of substitutions follows the chain as printed. Numbers in names are those of the source.

B1: wild-type ParM: prokaryotic actin homologue encoded on Escherichia coli plasmid R1, accession P11904 (protein, listed as Escherichia coli)
chain: MLVFIDDGSTNIKLQWQESDGTIKQHISPNSFKREWAVSFGDKKVFNYTLNGEQYSFDPISPDAVVTTNIAWQYSDVNVVAVHHALLTSGLPVSEVDIVCTLPLTEYYDRNNQPNTENIERKKANFRKKITLNGGDTFTIKDVKVMPESIPAGYEVLQELDELDSLLIIDLGGTTLDISQVMGKLSGISKIYGDSSLGVSLVTSAVKDALSLARTKGSSYLADDIIIHRKDNNYLKQRINDENKISIVTEAMNEALRKLEQRVLNTLNEFSGYTHVMVIGGGAELICDAVKKHTQIRDERFFKTNNSQYDLVNGMYLIGN
B2: T175H: MDCC-ParM (His6/I27C/T175H/C287A) (conjugate, UniProt P11904 1-320, looked up, variant I27C T175H C287A)
Plasmid segregation protein …: B1 chain with I27C, T175H, C287A
modifications: MDCC label; His6 tag
B3: T174A T175A: MDCC-ParM (His6/I27C/T174A/T175A/C287A) (conjugate, UniProt P11904 1-320, looked up, variant I27C T174A T175A C287A)
Plasmid segregation protein …: B1 chain with I27C, T174A, T175A, C287A
modifications: MDCC label; His6 tag
B4: S9Q: MDCC-ParM (His6/S9Q/I27C/C287A) (conjugate, UniProt P11904 1-320, looked up, variant S9Q I27C C287A)
Plasmid segregation protein …: B1 chain with S9Q, I27C, C287A
modifications: MDCC label; His6 tag
B5: T175N: MDCC-ParM (His6/I27C/T175N/C287A) (conjugate, UniProt P11904 1-320, looked up, variant I27C T175N C287A)
Plasmid segregation protein …: B1 chain with I27C, T175N, C287A
modifications: MDCC label; His6 tag
B6: T175L: MDCC-ParM (His6/I27C/T175L/C287A) (conjugate, UniProt P11904 1-320, looked up, variant I27C T175L C287A)
Plasmid segregation protein …: B1 chain with I27C, T175L, C287A
modifications: MDCC label; His6 tag
B7: T175A: MDCC-ParM (His6/I27C/T175A/C287A) (conjugate, UniProt P11904 1-320, looked up, variant I27C T175A C287A)
Plasmid segregation protein …: B1 chain with I27C, T175A, C287A
modifications: MDCC label; His6 tag
B8: S9A: MDCC-ParM (His6/S9A/I27C/C287A) (conjugate, UniProt P11904 1-320, looked up, variant S9A I27C C287A)
Plasmid segregation protein …: B1 chain with S9A, I27C, C287A
modifications: MDCC label; His6 tag
B9: T175F: MDCC-ParM (His6/I27C/T175F/C287A) (conjugate, UniProt P11904 1-320, looked up, variant I27C T175F C287A)
Plasmid segregation protein …: B1 chain with I27C, T175F, C287A
modifications: MDCC label; His6 tag
B10: T174A: MDCC-ParM (His6/I27C/T174A/C287A) (conjugate, UniProt P11904 1-320, looked up, variant I27C T174A C287A)
Plasmid segregation protein …: B1 chain with I27C, T174A, C287A
modifications: MDCC label; His6 tag
B11: E148R: MDCC-ParM (His6/I27C/E148R/C287A) (conjugate, UniProt P11904 1-320, looked up, variant I27C E148R C287A)
Plasmid segregation protein …: B1 chain with I27C, E148R, C287A
modifications: MDCC label, His6 tag
B12: PcrA: DNA helicase from Bacillus stearothermophilus involved in plasmid replication (protein, UniProt P56255 1-724, looked up)
ATP-dependent DNA helicase …: MNFLSEQLLAHLNKEQQEAVRTTEGPLLIMAGAGSGKTRVLTHRIAYLMAEKHVAPWNILAITFTNKAAREMRERVQSLLGGAAEDVWISTFHSMCVRILRRDIDRIGINRNFSILDPTDQLSVMKTILKEKNIDPKKFEPRTILGTISAAKNELLPPEQFAKRASTYYEKVVSDVYQEYQQRLLRNHSLDFDDLIMTTIQLFDRVPDVLHYYQYKFQYIHIDEYQDTNRAQYTLVKKLAERFQNICAVGDADQSIYRWRGADIQNILSFERDYPNAKVILLEQNYRSTKRILQAANEVIEHNVNRKPKRIWTENPEGKPILYYEAMNEADEAQFVAGRIREAVERGERRYRDFAVLYRTNAQSRVMEEMLLKANIPYQIVGGLKFYDRKEIKDILAYLRVIANPDDDLSLLRIINVPKRGIGASTIDKLVRYAADHELSLFEALGELEMIGLGAKAAGALAAFRSQLEQWTQLQEYVSVTELVEEVLDKSGYREMLKAERTIEAQSRLENLDEFLSVTKHFENVSDDKSLIAFLTDLALISDLDELDGTEQAAEGDAVMLMTLHAAKGLEFPVVFLIGMEEGIFPHNRSLEDDDEMEEERRLAYVGITRAEEELVLTSAQMRTLFGNIQMDPPSRFLNEIPAHLLETASRRQAGASRPAVSRPQASGAVGSWKVGDRANHRKWGIGTVVSVRGGGDDQELDIAFPSPIGIKRLLAKFAPIEKV

test system: not given; assay: not given; settings: 37° C.; reported (16); cited from earlier work

| Molecule | ATPase activity accelerated by polymerization [min⁻¹] |
| --- | --- |
| B1 | ~3 |

target: not listed separately; assay: Fluorescence titration of labeled ParM with ATP; type: binding; settings: Table 2
Protocol: The MDCC fluorescence was excited at 431 nm and emission was recorded at 474 nm. The equilibrium dissociation constants were determined by fitting a quadratic binding curve to the data. For the plot the experimental fluorescence intensities were converted to the nucleotide bound fraction of ParM.
(§1) The equilibrium dissociation constants were determined by fitting a quadratic binding curve to the data and are listed in Table Y. For the plot the experimental fluorescence intensities were normalized to the maximal fluorescence change obtained at saturation with ADP.
ADP and ATP were purchased from Sigma at the highest purity available. The purity of the nucleotides was analysed by HPLC using a Partisphere SAX column, 125×4.5 mm (Whatman). Nucleotide separation was performed isocratic with 0.3 M (NH4)2HPO4 buffer pH 4.0, 25% MeOH, and the absorbance at 260 nm was monitored.
(§2) [formula] where [P] and [L] are the total concentrations of protein and ligand, respectively, Kd is the dissociation constant and Fmin and Fmax are the fluorescence intensities of the free and ligand bound protein.
(§3) Fluorescence spectra and titrations were measured in a Cary Eclipse spectrofluorimeter (Varian). Excitation and emission spectra were recorded with 5 nm slit width at emission and excitation wavelength of 576 nm and 553 nm, respectively. In titration experiments rhodamine fluorescence was measured at the same excitation/emission wavelength. Titration data were analyzed with a quadratic binding curve using the program Grafit 5.0 (7).

| Molecule | Kd ratio ATP/ADP |
| --- | --- |
| B2 | 0.4 |
| B3 | 324 |
| B4 | 40 |
| B5 | 307 |
| B6 | 324 |
| B7 | 168 |
| B8 | 39 |
| B9 | 29 |
| B10 | 164 |

same assay, conditions: Table 2; MDCC-ParM mutants, 20° C.

| Molecule | ATP F+ATP/F−ATP |
| --- | --- |
| B2 | 3.9 |
| B3 | 3.2 |
| B4 | 2.8 |
| B5 | 3.2 |
| B6 | 2.3 |
| B11 | <1.1 |
| B7 | 3.3 |
| B8 | 2.9 |
| B9 | 2.5 |
| B10 | 3.1 |

same assay, conditions: Table 2; highly purified ATP containing only 0.03% ADP, 20° C.

| Molecule | Kd [µM] |
| --- | --- |
| B2 | 0.16 |
| B3 | 107 |
| B4 | 66 |
| B5 | 184 |
| B6 | 507 |
| B7 | 62 |
| B8 | 98 |
| B9 | 137 |
| B10 | 64 |

test system: not listed separately; assay: Stopped-flow kinetics of ADP binding and dissociation; settings: Table 3; ADP association, stopped-flow, 20° C.

| Molecule | kon [M⁻¹ s⁻¹] |
| --- | --- |
| B3 | 980000 |
| B5 | 640000 |
| B6 | 340000 |

same assay, conditions: Table 3; calculated as koff/kon

| Molecule | Kd [µM] |
| --- | --- |
| B3 | 0.22 |
| B5 | 0.42 |
| B6 | 0.81 |

same assay, conditions: Table 3; displacement with unlabeled ParM, 20° C.

| Molecule | koff [s⁻¹] |
| --- | --- |
| B3 | 0.22 |
| B5 | 0.27 |
| B6 | 0.28 |

test system: not given; assay: not given; settings: reported (19); cited from earlier work

| Molecule | ethenoATP bound tighter than ethenoADP [fold] |
| --- | --- |
| B1 | 60 |

same assay, conditions: reported (19); read-out: Kd for ethenoATP; cited from earlier work

| Molecule | Kd [µM] |
| --- | --- |
| B1 | 0.04 |

same assay, conditions: reported (19); read-out: dissociation constant for ethenoATP; cited from earlier work

| Molecule | Kd [µM] |
| --- | --- |
| B1 | 0.04 |

test system: not listed separately; assay: Fluorescence titration of labeled ParM with ADP; type: binding; settings: Table 2; MDCC-ParM mutants, 20° C.
Protocol: MDCC fluorescence was excited at 431 nm and detected at 474 nm, for the rhodamine-labeled proteins, excitation and emission wavelengths of 553 nm and 578 nm were used. […] The fraction of ParM bound to ADP was calculated from the fluorescence intensities.
The MDCC fluorescence was excited at 431 nm and emission was recorded at 474 nm. The equilibrium dissociation constants were determined by fitting a quadratic binding curve to the data.
as §1, §2, §3

| Molecule | ADP F+ADP/F−ADP |
| --- | --- |
| B2 | 3.2 |
| B3 | 3.3 |
| B4 | 3.2 |
| B5 | 3.4 |
| B6 | 1.9 |
| B11 | <1.1 |
| B7 | 3.3 |
| B8 | 3.1 |
| B9 | 2.5 |
| B10 | 2.9 |

same assay, conditions: Table 2; fluorescence titration, 20° C.

| Molecule | Kd [µM] |
| --- | --- |
| B2 | 0.4 |
| B3 | 0.33 |
| B4 | 1.66 |
| B5 | 0.6 |
| B6 | 1.57 |
| B7 | 0.37 |
| B8 | 2.5 |
| B9 | 4.7 |
| B10 | 0.39 |

target: PcrA helicase (Geobacillus stearothermophilus, UniProt P56255); assay: Steady-state ATP hydrolysis by PcrA helicase monitored with the biosensor; type: biochemical, Bacillus stearothermophilus; settings: 1 nM PcrA, 5 μM ATP, 3.8 μM dT16, 10 μM MDCC-ParM, 20° C.

| Molecule | initial rate of ADP generation [nM/s] |
| --- | --- |
| B12 | 10.4 |

same assay, conditions: 2 nM PcrA, 0.5 μM dT20, 5 μM MDCC-ParM, set of calibration curves

| Molecule | Km [µM] | kcat [s⁻¹] |
| --- | --- | --- |
| B12 | 1.6 | 13.7 |

same assay, conditions: 2 nM PcrA, 5 μM ATP, 3.8 μM dT16, 10 μM MDCC-ParM, 20° C.

| Molecule | initial rate of ADP generation [nM/s] |
| --- | --- |
| B12 | 19.9 |

same assay, conditions: calibration at 15 μM total nucleotide concentration

| Molecule | kcat [s⁻¹] |
| --- | --- |
| B12 | 14.0 |

same assay, conditions: calibration in the absence of ATP

| Molecule | kcat [s⁻¹] |
| --- | --- |
| B12 | 12.2 |

same assay, conditions: measured with MDCC-ParM, 5 μM ATP, background subtracted

| Molecule | steady state hydrolysis activity [s⁻¹] |
| --- | --- |
| B12 | 6.8 |

same assay, conditions: measured with phosphate biosensor MDCC-PBP

| Molecule | Km [µM] | kcat [s⁻¹] | steady state hydrolysis activity [s⁻¹] |
| --- | --- | --- | --- |
| B12 | 1.7 | 11.5 | 7.2 |

same assay, conditions: single calibration used for all ATP concentrations

| Molecule | Michaelis-Menten constant for ATP [µM] |
| --- | --- |
| B12 | 1.4 |

target: not given; assay: not given; settings: reported (19); read-out: dissociation constant for ethenoADP; cited from earlier work

| Molecule | Kd [µM] |
| --- | --- |
| B1 | 2.4 |
